Like-named read-outs stand apart in the source and are kept apart here.
Legend:
[1] = molecular target: T1, GAPDH wild type (Homo sapiens, UniProt P04406 1-335); test: EMSA
[2] = molecular target: T1, GAPDH wild type; test: competition EMSA
[3] = molecular target: T1, GAPDH wild type; test: competition EMSA; remark: listed apart in the source
[4] = molecular target: T1, GAPDH wild type; test: competition EMSA; remark: listed apart in the source

T1 sequence (P04406 whole entry): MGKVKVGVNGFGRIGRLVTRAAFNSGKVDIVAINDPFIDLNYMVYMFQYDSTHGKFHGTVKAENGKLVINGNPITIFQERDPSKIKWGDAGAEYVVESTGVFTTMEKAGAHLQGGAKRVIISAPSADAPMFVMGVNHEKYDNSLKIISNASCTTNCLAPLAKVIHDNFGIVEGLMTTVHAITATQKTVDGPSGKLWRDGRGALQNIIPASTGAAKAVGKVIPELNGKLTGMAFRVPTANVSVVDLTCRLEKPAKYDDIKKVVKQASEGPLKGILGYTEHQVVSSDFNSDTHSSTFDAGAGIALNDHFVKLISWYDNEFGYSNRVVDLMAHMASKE

B1: ss-(TTAGGG)3 (ssDNA)
DNA: TTAGGGTTAGGGTTAGGG
- Kd [1]: 70 ± 5 nM

B2: ss-(AGGGTT)3 (ssDNA)
DNA: AGGGTTAGGGTTAGGGTT
- Kd [1]: 45 ± 5 nM

B3: control 18-mer (ssDNA)
DNA: AGATGTAGCAATAGTAGT
- binding result [2]: no binding

B4: ss-(ATAGGG)3 (ssDNA)
DNA: ATAGGGATAGGGATAGGG
- binding result [3]: no binding

B5: ss-(TTTGGG)3 (ssDNA)
DNA: TTTGGGTTTGGGTTTGGG
- binding result [4]: binds

B6: ss-(TTAGCG)3 (ssDNA)
DNA: TTAGCGTTAGCGTTAGCG
- binding result [3]: no binding

B7: ss-(TTAGGC)3 (ssDNA)
DNA: TTAGGCTTAGGCTTAGGC
- binding result [3]: no binding
